# From patent US20220396819A1, “METHOD FOR PRODUCING PEPTIDE HAVING PHYSIOLOGICAL ACTIVITY, AND PEPTIDE COMPRISING SHORT LINKER” (priority 2019, published 2022)
# “Also recorded” adds a separate entry of the source. Where two headings read alike, the source gives them in different places. Positions of bridges follow the written chain, without caps; N, C: chain ends. No end group written: not given here.
# T1: thrombopoietin receptor c-Mpl (human, UniProt P40238 26-635)
# T1 sequence (looked up): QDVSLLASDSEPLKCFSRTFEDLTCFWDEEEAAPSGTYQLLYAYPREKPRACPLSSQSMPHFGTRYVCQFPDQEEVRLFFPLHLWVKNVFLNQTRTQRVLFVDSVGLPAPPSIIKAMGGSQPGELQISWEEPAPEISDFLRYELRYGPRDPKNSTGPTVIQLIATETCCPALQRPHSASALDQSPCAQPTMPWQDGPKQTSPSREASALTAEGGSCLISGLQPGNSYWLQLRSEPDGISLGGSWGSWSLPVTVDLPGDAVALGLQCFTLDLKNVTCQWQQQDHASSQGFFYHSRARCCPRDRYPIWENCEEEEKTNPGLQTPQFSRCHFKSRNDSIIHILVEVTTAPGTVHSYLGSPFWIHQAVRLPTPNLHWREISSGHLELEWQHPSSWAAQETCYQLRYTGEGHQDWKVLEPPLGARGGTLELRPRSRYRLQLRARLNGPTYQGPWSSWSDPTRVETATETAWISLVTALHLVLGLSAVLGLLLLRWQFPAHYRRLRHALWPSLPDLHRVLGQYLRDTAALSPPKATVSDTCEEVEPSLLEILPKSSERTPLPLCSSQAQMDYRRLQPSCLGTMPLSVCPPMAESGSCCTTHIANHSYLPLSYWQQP
# T2: EpoR (UniProt P19235 25-508, limits assumed)
# T2 sequence (looked up): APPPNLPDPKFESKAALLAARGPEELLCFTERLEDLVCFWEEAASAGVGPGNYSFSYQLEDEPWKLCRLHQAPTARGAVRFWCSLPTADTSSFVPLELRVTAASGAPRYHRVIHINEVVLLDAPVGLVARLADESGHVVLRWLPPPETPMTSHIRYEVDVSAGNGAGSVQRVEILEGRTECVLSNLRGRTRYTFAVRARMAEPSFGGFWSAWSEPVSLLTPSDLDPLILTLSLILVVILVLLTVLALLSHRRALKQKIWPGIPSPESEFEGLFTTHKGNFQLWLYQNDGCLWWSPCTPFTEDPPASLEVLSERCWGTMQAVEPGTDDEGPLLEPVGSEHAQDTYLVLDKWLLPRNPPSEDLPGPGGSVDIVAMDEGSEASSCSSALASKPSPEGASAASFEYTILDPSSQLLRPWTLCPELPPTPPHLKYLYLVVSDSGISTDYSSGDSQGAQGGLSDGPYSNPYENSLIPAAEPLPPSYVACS
# What was measured:
# VEGFR [1] = biological target: T3, VEGFR (Homo sapiens, UniProt P35968); test: VEGF inhibitory ability, luciferase assay in VEGFR/NFAT Reporter HEK293 cells; type: cell-based
# T3 construct: host or cells: VEGFR/NFAT Reporter HEK293 cells
# Experimental: The VEGF inhibitory ability of the VEGFR_D2-PAS heterodimer peptide was evaluated by luciferase assay. 40,000 cell/well VEGFR/NFAT Reporter HEK293 cells (BPS Bioscience) were seeded and incubated overnight in a 5% CO2 incubator at 37° C. The cells were incubated overnight in Assay medium (MEM medium (Nacalai Tesque), 1×MEM Non-Essential Amino Acids Solution (Thermo Fisher Scientific), 1 mM Sodium Pyruvate (Nacalai Tesque), 1% Penicillin-Streptomycin (Sigma Aldrich), and 0.3% FBS (Thermo Fisher Scientific)) to starvation. […] The cells were stimulated by culturing in a 5% CO2 incubator at 37° C. for 4 hours.
# One-Glo Luciferase Assay System (Promega) was used to detect the signal intensity. Medium supernatant in an amount of 50 μL was removed, 50 μL of One-Glo reagent was added, and the cells were lysed for 10 minutes at room temperature. The luminescence emitted from the cell lysate solution was detected with a Nivo plate reader (Perkin Elmer) to quantify the activation of the VEGFR-NFAT pathway, and the relative signal activity value for the sample without addition of evaluation compound was determined and used as relative receptor activity.
# The VEGF inhibitory ability of the cell-free expressed VEGFR_D2-PAS heterodimer peptide was evaluated by luciferase assay. 40,000 cell/well VEGFR/NFAT Reporter HEK293 cells (BPS Bioscience) were seeded and incubated overnight in a 5% CO2 incubator at 37° C. The cells were incubated overnight in Assay medium (MEM medium (Nacalai Tesque), 1×MEM Non-Essential Amino Acids Solution (Thermo Fisher Scientific), 1 mM Sodium Pyruvate (Nacalai Tesque), 1% Penicillin-Streptomycin (Sigma Aldrich), and 0.3% FBS (Thermo Fisher Scientific)) to starvation. To the Assay medium, 100 μL of 10 ng/mL human recombinant VEGF (R&D Systems) was added, and further, MAET-VEGFR_D2-PAS16, MAET-VEGFR_D2-PAS49-b, MAET-VEGFR_D2-PAS100-b, or a cell-free expression solution containing MAET-VEGFR_D2-GS16, or a cell-free expression solution with unexpressed peptide was added at a predetermined dilution factor, and 100 μL of the Assay medium was added to the cells. The cells were stimulated by culturing in a 5% CO2 incubator at 37° C. for 4 hours.
# The VEGF inhibitory ability of the VEGFR_D2-PAS heterodimer peptide linker variant was evaluated by luciferase assay. 40,000 cell/well VEGFR/NFAT Reporter HEK293 cells (BPS Bioscience) were seeded and incubated overnight in a 5% CO2 incubator at 37° C. The cells were incubated overnight in Assay medium (MEM medium (Nacalai Tesque), 1×MEM Non-Essential Amino Acids Solution (Thermo Fisher Scientific), 1 mM Sodium Pyruvate (Nacalai Tesque), 1% Penicillin-Streptomycin (Sigma Aldrich), and 0.3% FBS (Thermo Fisher Scientific)) to starvation. To the Assay medium, 10 ng/mL human recombinant VEGF (R&D Systems) was added, and further, a culture supernatant containing VEGFR_D2-PAS16, VEGFR_D2-PAS49, or VEGFR_D2-PAS100 at a predetermined concentration was added, and 100 μL of the Assay medium was added to the cells. The cells were stimulated by culturing in a 5% CO2 incubator at 37° C. for 4 hours. Note that VEGFR_D2-PAS16 was obtained according to the method described in Example 27.
# [2] = biological target: T1, thrombopoietin receptor c-Mpl; test: cell-based or functional assay
# EpoR = biological target: T2, EpoR; test: cell-based or functional assay
# VEGFR [3] = biological target: VEGFR (UniProt P35968 20-1356, limits assumed); test: cell-based or functional assay
# [4] = Example 39, cell-free expression solution, 10 ng/mL VEGF, FIGS. 71 and 72
# VEGFR (UniProt P35968 20-1356, limits assumed), sequence (P35968 20-1356 limits assumed): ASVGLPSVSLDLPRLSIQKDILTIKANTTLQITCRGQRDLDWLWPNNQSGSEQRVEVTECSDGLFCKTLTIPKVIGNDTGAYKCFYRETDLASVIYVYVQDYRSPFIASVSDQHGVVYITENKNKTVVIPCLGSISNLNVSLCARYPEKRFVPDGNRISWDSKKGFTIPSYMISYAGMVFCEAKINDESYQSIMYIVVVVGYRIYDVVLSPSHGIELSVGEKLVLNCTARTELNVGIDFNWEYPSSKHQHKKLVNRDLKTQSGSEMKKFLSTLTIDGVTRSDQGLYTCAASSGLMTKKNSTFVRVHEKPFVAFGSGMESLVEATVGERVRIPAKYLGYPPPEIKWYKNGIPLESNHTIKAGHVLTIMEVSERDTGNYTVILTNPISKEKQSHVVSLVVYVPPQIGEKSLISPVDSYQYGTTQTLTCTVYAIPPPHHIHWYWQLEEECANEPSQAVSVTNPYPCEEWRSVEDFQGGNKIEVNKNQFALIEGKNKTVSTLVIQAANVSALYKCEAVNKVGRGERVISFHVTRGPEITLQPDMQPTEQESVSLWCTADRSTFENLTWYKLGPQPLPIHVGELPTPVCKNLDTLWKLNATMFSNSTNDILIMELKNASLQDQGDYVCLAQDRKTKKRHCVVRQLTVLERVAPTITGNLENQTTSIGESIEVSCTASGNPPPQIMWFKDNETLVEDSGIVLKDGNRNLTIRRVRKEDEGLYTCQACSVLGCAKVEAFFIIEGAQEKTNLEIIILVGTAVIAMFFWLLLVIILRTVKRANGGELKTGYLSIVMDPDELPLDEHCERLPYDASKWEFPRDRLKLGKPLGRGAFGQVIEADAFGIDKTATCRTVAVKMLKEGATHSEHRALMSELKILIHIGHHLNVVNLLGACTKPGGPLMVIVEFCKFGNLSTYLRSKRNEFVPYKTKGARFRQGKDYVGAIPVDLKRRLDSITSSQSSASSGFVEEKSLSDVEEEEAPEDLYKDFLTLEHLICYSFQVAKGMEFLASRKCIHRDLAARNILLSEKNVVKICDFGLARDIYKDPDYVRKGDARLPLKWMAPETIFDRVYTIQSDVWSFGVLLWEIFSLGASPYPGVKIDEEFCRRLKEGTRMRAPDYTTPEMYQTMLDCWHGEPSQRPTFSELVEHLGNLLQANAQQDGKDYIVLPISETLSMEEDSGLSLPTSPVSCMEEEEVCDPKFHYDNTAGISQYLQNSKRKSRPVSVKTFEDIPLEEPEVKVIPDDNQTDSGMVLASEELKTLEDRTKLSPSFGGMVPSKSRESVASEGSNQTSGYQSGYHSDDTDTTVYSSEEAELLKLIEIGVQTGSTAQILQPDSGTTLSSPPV
# T3 sequence (P35968 20-1356): as the sequence (P35968 20-1356 limits assumed) above
molecule,measurement,setting,value
"AETAGPTWCEDDWYYCWLFGTAAPAAPAPAAPAAPAPAAPAAPAPAAPAAPAPAAPAAPAPAAPAAPAPAVCWEDSWGGEVCWLFGT (disulfide 9-16, 72-82) [AET-VEGFR_D2-PAS49]",IC50,VEGFR [1],1.43 nM
"AETAGPTWCEDDWYYCWLFGTAAPAAPAPAAPAAPAPVCWEDSWGGEVCWLFGT (disulfide 9-16, 39-49) [AET-VEGFR_D2-PAS16]",IC50,VEGFR [1],0.26 nM
same,VEGF inhibitory activity (relative VEGF activity),"VEGFR [1]; Example 29, purified by HPLC, 10 ng/mL VEGF, 4 hours, FIG. 47",higher inhibitory activity than the monomer peptides P3 and Pm4
"AETAGPTWCEDDWYYCWLFGTGGGGSGGGGSGGGGSGVCWEDSWGGEVCWLFGT (disulfide 9-16, 39-49) [AET-VEGFR_D2-GS16]",IC50,VEGFR [1],2.93 nM
"MAETAGPTWCEDDWYYCWLFGTAAPAAPAPAAPAAPAPVCWEDSWGGEVCWLFGT (disulfide 10-17, 40-50) [MAET-VEGFR_D2-PAS16]",VEGF inhibitory activity (relative VEGF activity),VEGFR [1]; [4],higher inhibitory activity than MAET-VEGFR_D2-PAS100-b; also recorded: higher inhibitory activity than MAET-VEGFR_D2-GS16
recombinant human TPO (from UniProt P40225 22-195) (ligand),"relative CREB phosphorylation level (pCREB ELISA, HEL cells, 100 ng/mL rhTPO)",[2],143%
"AET-EPO-GS8 (disulfide 9-18, 37-46) peptide: AETGGLYACHMGPMTWVCQPLRGGGGGSGGGGGLYACHMGPMTWVCQPLRG",EC50,EpoR,0.53 ng/mL
TPO2-PAS100 (two disulfide bonds in the molecule) peptide: GGCADGPTLREWISFCGGAAPAAPAPAAPAAPAPAAPAAPAPAAPAAPAPAAPAAPAPAAPAAPAPAAPAAPAPAAPAAPAPAAPAAPAPAAPAAPAPAAPAAPAPAAPAAPAPAAPAGGCADGPTLREWISFCGG,"relative CREB phosphorylation level (pCREB ELISA, HEL cells)",[2],112%
TPO2-PAS49 (two disulfide bonds in the molecule) peptide: GGCADGPTLREWISFCGGAAPAAPAPAAPAAPAPAAPAAPAPAAPAAPAPAAPAAPAPAAPAAPAPAGGCADGPTLREWISFCGG,"relative CREB phosphorylation level (pCREB ELISA, HEL cells)",[2],131%
"GGCADGPTLREWISFCGGAAPAAPAPGGCADGPTLREWISFCGG (disulfide 3-16, 29-42) [TPO2-PAS8]","relative CREB phosphorylation level (pCREB ELISA, HEL cells)",[2],136%
AET-EPO-PAS100 (two disulfide bonds in the molecule) peptide: AETGGLYACHMGPMTWVCQPLRGAAPAAPAPAAPAAPAPAAPAAPAPAAPAAPAPAAPAAPAPAAPAAPAPAAPAAPAPAAPAAPAPAAPAAPAPAAPAAPAPAAPAAPAPAAPAAPAPAAPAGGLYACHMGPMTWVCQPLRG,EC50,EpoR,6.6 ng/mL
"GGCADGPTLREWISFCGGGGGGSGGGGGCADGPTLREWISFCGG (disulfide 3-16, 29-42) [TPO2-GS8]","relative CREB phosphorylation level (pCREB ELISA, HEL cells)",[2],121%
AET-VEGFR_D2-PAS100 (two disulfide bonds in the molecule) peptide: AETAGPTWCEDDWYYCWLFGTAAPAAPAPAAPAAPAPAAPAAPAPAAPAAPAPAAPAAPAPAAPAAPAPAAPAAPAPAAPAAPAPAAPAAPAPAAPAAPAPAAPAAPAPAAPAAPAPAAPAVCWEDSWGGEVCWLFGT,IC50,"VEGFR [1]; Example 46, culture supernatant, 10 ng/mL VEGF, 4 hours, Table 8",86 ng/mL
same,IC50,VEGFR [3],86 ng/mL
MAETAGPTWCEDDWYYCWLFGTSAPSPSSAPASASAPASPASASASASPASSPASASSASPAASSASPASSVCWEDSWGGEVCWLFGT (MAET-VEGFR_D2-PAS49-b; DISULFID (10)..(17) Disulfid bridge between Cys-10 and Cys-17; DISULFID (73)..(83) Disulfid bridge between Cys-73 and Cys-83) MAETAGPTWCEDDWYYCWLFGTSAPSPSSAPASASAPASPASASASASPASSPASASSASPAASSASPASSVCWEDSWGGEVCWLFGT,VEGF inhibitory activity (relative VEGF activity),VEGFR [1]; [4],higher inhibitory activity than MAET-VEGFR_D2-PAS100-b
AET-VEGFR_D2-PAS49 (two disulfide bonds in the molecule) peptide: AETAGPTWCEDDWYYCWLFGTAAPAAPAPAAPAAPAPAAPAAPAPAAPAAPAPAAPAAPAPAAPAAPAPAVCWEDSWGGEVCWLFGT,IC50,VEGFR [3],12 ng/mL
"AET-VEGFR_D2-PAS16 (disulfide 9-16, 39-49) peptide: AETAGPTWCEDDWYYCWLFGTAAPAAPAPAAPAAPAPVCWEDSWGGEVCWLFGT",IC50,VEGFR [3],1.5 ng/mL
AET-EPO-PAS49 (two disulfide bonds in the molecule) peptide: AETGGLYACHMGPMTWVCQPLRGAAPAAPAPAAPAAPAPAAPAAPAPAAPAAPAPAAPAAPAPAAPAAPAPAGGLYACHMGPMTWVCQPLRG,EC50,EpoR,4.3 ng/mL
"AET-VEGFR_D2-GS16 (disulfide 9-16, 39-49) peptide: AETAGPTWCEDDWYYCWLFGTGGGGSGGGGSGGGGSGVCWEDSWGGEVCWLFGT",IC50,VEGFR [3],16 ng/mL
"AET-EPO-GS22 (disulfide 9-18, 51-60) peptide: AETGGLYACHMGPMTWVCQPLRGGGGGSGGGGSGGGGSGGGGSGGGGLYACHMGPMTWVCQPLRG",EC50,EpoR,1.3 ng/mL
